Several values for one entry are separate records, joined by “and”; a condition that tells them apart may be missing. Equal values may be shown once.
Key:
[1] = test system: patients with geographic atrophy (GA) secondary to age-related macular degeneration (AMD); test: OAKS Phase 3 study: safety
Description: (§1) All randomized subjects returned every month to the clinical site for assessments and additional pegcetacoplan or sham injections according to their randomization scheme until Month 12. From Month 12 onwards, subjects return to the clinical site based on their randomized treatment schedule (monthly or EOM) and follow the treatment regimen and assessments outlined in the Visit Schedule until Month 24. Safety was assessed throughout the study by a number of evaluations including: monitoring of AEs, preinjection and postinjection monitoring, blood and urine samples collected, physical examination, vital signs, and follow-up phone calls. Blood samples were also be collected for anti-therapeutic antibodies, genotyping, and clinical repository (if the subject consented to this portion).
(§2) The Safety set consisted of all subjects randomized who received at least one injection of pegcetacoplan or sham. Subjects were analyzed according to the actual treatment received. […] This population was used for all safety analyses.

[2] = test system: patients with geographic atrophy (GA) secondary to age-related macular degeneration (AMD); test: DERBY Phase 3 study: safety; details: for Patients with new onset fellow eye eAMD: through 18 months
Description: as §1, §2

[3] = PEOM (every other month), 12 months
[4] = PEOM (every other month), 18 months
[5] = PEOM (every other month), N=208

## Poly(oxy-1,2-ethanediyl), α-hydro-ω-hydroxy-, 15,15′-diester with N-acetyl-L-isoleucyl-L-cysteinyl-L-valyl-1-methyl-L-tryptophyl-L-glutaminyl-L-α-aspartyl-L-tryptophylglycyl-L-alanyl-L-histidyl-L-arginyl-L-cysteinyl-L-threonyl-2-[2-(2-aminoethoxy) ethoxy]acetyl-N^6-carboxy-L-lysinamide cyclic (2->12)-(disulfide) [pegcetacoplan]
[1]; PM (monthly), N=213
  Discontinued study prior to Month 12, reason Adverse Event: 3 (1.4%) n (%)
  Discontinued study prior to Month 12, reason Death: 7 (3.3%) n (%)
  Discontinued study prior to Month 18, reason Adverse event: 6 (2.8%) n (%)
  Discontinued study prior to Month 18, reason Death: 12 (5.6%) n (%)
[1]; PM (monthly), through 18 months, 168 patients without baseline fellow eye CNV
  Patients with new onset fellow eye eAMD: 8 (4.8%) n (%)
[1]; every other month, month 18, 15/212 patients
  patients with study eye investigator-determined new-onset exudative AMD: 7.1%
[1]; monthly, month 18, 16/213 patients
  patients with study eye investigator-determined new-onset exudative AMD: 7.5%
[2]; [3]
  All TEAEs, Total events, M: 600
  All TEAEs, patients: 155 (74.5%) n (%)
  Cases of MNV (FA) detected by reading center but not reported by Investigator as AE: 1
  Non-ocular TEAEs, Patients: 110 (52.9%) n (%)
  Non-ocular TEAEs, events M: 339
  Ocular TEAE in study eye Vitreous floaters, events M: 5
  Ocular TEAE in study eye Vitreous floaters, patients: 4 (1.9%) n (%)
  Ocular TEAEs in study eye, Patients: 91 (43.8%) n (%) and 91 (43.8) n (%)
  Ocular TEAEs in study eye, events M: 162
  Serious ocular TEAE Dry AMD, patients: 0 n (%)
  Serious ocular TEAE Endophthalmitis, patients: 0 n (%)
  Serious ocular TEAE Macular hole, patients: 0 n (%)
  Serious ocular TEAE Optic ischemic neuropathy, patients: 0 n (%)
  Serious ocular TEAE Papilledema, patients: 0 n (%)
  Serious ocular TEAE Retinal detachment, patients: 0 n (%)
  Serious ocular TEAE Vitritis, patients: 0 n (%)
  Serious ocular TEAEs in the study eye, patients: 0 n (%)
  Sum of investigator-determined eAMD and reading center cases not reported by investigators: (3.8%)
[2]; PEOM (every other month), 12 months, count
  Sum of investigator-determined eAMD and reading center cases not reported by investigators: 8
[2]; [4]
  All TEAEs, Total events, M: 835
  All TEAEs, patients: 171 (82.2%) n (%)
  Non-ocular TEAEs, M: 495
  Non-ocular TEAEs, Patients: 132 (63.5%) n (%)
  Ocular TEAEs in study eye, M: 216
  Ocular TEAEs in study eye, Patients: 99 (47.6%) n (%)
[2]; [5]
  Discontinued study prior to Month 12, reason Adverse Event: 4 (1.9%) n (%)
  Discontinued study prior to Month 12, reason Death: 0 n (%)
  Discontinued study prior to Month 18, reason Adverse event: 4 (1.9%) n (%)
  Discontinued study prior to Month 18, reason Death: 4 (1.9%) n (%)
[2]; PEOM (every other month), 166 patients without baseline fellow eye CNV
  Patients with new onset fellow eye eAMD: 8 (4.8%) n (%)
[2]; PM (monthly), 12 months
  All TEAEs, Total events, M: 708
  All TEAEs, patients: 158 (76.7%) n (%)
  Cases of MNV (FA) detected by reading center but not reported by Investigator as AE: 0
  Non-ocular TEAEs, Patients: 127 (61.7%) n (%)
  Non-ocular TEAEs, events M: 396
  Ocular TEAE in study eye Vitreous floaters, events M: 22
  Ocular TEAE in study eye Vitreous floaters, patients: 18 (8.7%) n (%)
  Ocular TEAEs in study eye, Patients: 100 (48.5%) n (%)
  Ocular TEAEs in study eye, events M: 227
  Serious ocular TEAE Dry AMD, patients: 0 n (%)
  Serious ocular TEAE Endophthalmitis, patients: 0 n (%)
  Serious ocular TEAE Macular hole, patients: 0 n (%)
  Serious ocular TEAE Optic ischemic neuropathy, patients: 0 n (%)
  Serious ocular TEAE Papilledema, patients: 0 n (%)
  Serious ocular TEAE Retinal detachment, patients: 0 n (%)
  Serious ocular TEAE Vitritis, events M: 1
  Serious ocular TEAE Vitritis, patients: 1 (0.5%) n (%)
  Serious ocular TEAEs in the study eye, events M: 1
  Serious ocular TEAEs in the study eye, patients: 1 (0.5%) n (%)
  Sum of investigator-determined eAMD and reading center cases not reported by investigators: (6.8%)
[2]; PM (monthly), 12 months, count
  Sum of investigator-determined eAMD and reading center cases not reported by investigators: 14
[2]; PM (monthly), 18 months
  All TEAEs, Total events, M: 993
  All TEAEs, patients: 170 (82.5%) n (%)
  Non-ocular TEAEs, M: 567
  Non-ocular TEAEs, Patients: 148 (71.8%) n (%)
  Ocular TEAEs in study eye, M: 308
  Ocular TEAEs in study eye, Patients: 118 (57.3%) n (%)
[2]; PM (monthly), N=206
  Discontinued study prior to Month 12, reason Adverse Event: 1 (0.5%) n (%)
  Discontinued study prior to Month 12, reason Death: 5 (2.4%) n (%)
  Discontinued study prior to Month 18, reason Adverse event: 3 (1.5%) n (%)
  Discontinued study prior to Month 18, reason Death: 6 (2.9%) n (%)
[2]; PM (monthly), 167 patients without baseline fellow eye CNV
  Patients with new onset fellow eye eAMD: 4 (2.4%) n (%)
[2]; every other month, month 18, 11/208 patients
  patients with study eye investigator-determined new-onset exudative AMD: 5.3%
[2]; monthly, month 18, 24/206 patients
  patients with study eye investigator-determined new-onset exudative AMD: 11.7%
